Experimental data: the supplement of paper PMC5998384

Experiments:
HeLa Kyoto [1] = assay: solubility in G1/S (NP-40 vs SDS abundance) (log2 ratio); higher = more soluble; conditions: cell cycle stage: G1/S
HeLa Kyoto [2] = assay: melting temperature (median over replicates), in situ; higher = more thermally stable
HeLa Kyoto [3] = assay: solubility change mitosis vs G1/S (difference of NP-40 vs SDS log2 ratios) (log2 ratio difference); higher = more soluble in mitosis
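Throughout, for melting temperature (median over replicates), in situ: HeLa Kyoto cells synchronized by double thymidine or nocodazole block, proteins quantified by TMT10plex mass spectrometry, three independent biological replicates.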
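Throughout, for solubility change mitosis vs G1/S (difference of NP-40 vs SDS log2 ratios): synchronized HeLa Kyoto cells (double thymidine block for G1/S, nocodazole release for mitosis), protein amounts in NP-40 versus SDS lysates quantified by mass spectrometry, three biological replicates.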
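Throughout, for solubility in G1/S (NP-40 vs SDS abundance): HeLa Kyoto cells arrested at G1/S by double thymidine block, proteins quantified by TMT10plex mass spectrometry in mild NP-40 versus SDS extracts, three biological replicates.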

PLSCR3, sequence (chain, as listed by the source): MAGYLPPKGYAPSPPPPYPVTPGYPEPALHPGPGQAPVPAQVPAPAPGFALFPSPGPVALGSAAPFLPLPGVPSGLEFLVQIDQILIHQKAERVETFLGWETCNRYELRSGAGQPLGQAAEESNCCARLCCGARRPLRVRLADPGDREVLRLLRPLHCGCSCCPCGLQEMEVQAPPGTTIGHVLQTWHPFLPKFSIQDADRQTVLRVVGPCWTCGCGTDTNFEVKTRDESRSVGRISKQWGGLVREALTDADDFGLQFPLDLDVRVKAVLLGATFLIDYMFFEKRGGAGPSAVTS
LLPH, sequence (chain, as listed by the source): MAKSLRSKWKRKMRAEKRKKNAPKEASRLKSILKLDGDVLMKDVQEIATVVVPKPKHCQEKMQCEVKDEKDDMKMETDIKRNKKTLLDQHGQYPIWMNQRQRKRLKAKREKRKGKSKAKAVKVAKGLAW

Substance	solubility in G1/S (log2) (HeLa Kyoto [1])	melting temperature (HeLa Kyoto [2]; cell cycle stage: G1/S) [°C]	solubility change mitosis (log2) (HeLa Kyoto [3])	melting temperature (HeLa Kyoto [2]; cell cycle stage: mitosis) [°C]
MFHGIPATPGIGAPGNKPELYEEVKLYKNAREREKYDNMAELFAVVKTMQALEKAYIKDCVSPSEYTAACSRLLVQYKAAFRQVQGSEISSIDEFCRKFRLDCPLAMERIKEDRPITIKDDKGNLNRCIADVVSLFITVMDKLRLEIRAMDEIQPDLRELMETMHRMSHLPPDFEGRQTVSQWLQTLSGMSASDELDDSQVRQMLFDLESAYNAFNRFLHA [VPS28]	0.19	51.5	0.014	
MAGVSYAAPWWVSLLHRLPHFDLSWEATSSQFRPEDTDYQQALLLLGAAALACLALDLLFLLFYSFWLCCRRRKSEEHLDADCCCTAWCVIIATLVCSAGIAVGFYGNGETSDGIHRATYSLRHANRTVAGVQDRVWDTAVGLNHTAEPSLQTLERQLAGRPEPLRAVQRLQGLLETLLGYTAAIPFWRNTAVSLEVLAEQVDLYDWYRWLGYLGLLLLDVIICLLVLVGLIRSSKGILVGVCLLGVLALVISWGALGLELAVSVGSSDFCVDPDAYVTKMVEEYSVLSGDILQYYLACSPRAANPFQQKLSGSHKALVEMQDVVAELLRTVPWEQPATKDPLLRVQEVLNGTEVNLQHLTALVDCRSLHLDYVQALTGFCYDGVEGLIYLALFSFVTALMFSSIVCSVPHTWQQKRGPDEDGEEEAAPGPRQAHDSLYRVHMPSLYSCGSSYGSETSIPAAAHTVSNAPVTEYMSQNANFQNPRCENTPLIGRESPPPSYTSSMRAKYLATSQPRPDSSGSH [TTYH3]	0.256	55.3	-0.146	56.1
MAAGERSWCLCKLLRFFYSLFFPGLIVCGTLCVCLVIVLWGIRLLLQRKKKLVSTSKNGKNQMVIAFFHPYCNAGGGGERVLWCALRALQKKYPEAVYVVYTGDVNVNGQQILEGAFRRFNIRLIHPVQFVFLRKRYLVEDSLYPHFTLLGQSLGSIFLGWEALMQCVPDVYIDSMGYAFTLPLFKYIGGCQVGSYVHYPTISTDMLSVVKNQNIGFNNAAFITRNPFLSKVKLIYYYLFAFIYGLVGSCSDVVMVNSSWTLNHILSLWKVGNCTNIVYPPCDVQTFLDIPLHEKKMTPGHLLVSVGQFRPEKNHPLQIRAFAKLLNKKMVESPPSLKLVLIGGCRNKDDELRVNQLRRLSEDLGVQEYVEFKINIPFDELKNYLSEATIGLHTMWNEHFGIGVVECMAAGTIILAHNSGGPKLDIVVPHEGDITGFLAESEEDYAETIAHILSMSAEKRLQIRKSARASVSRFSDQEFEVTFLSSVEKLFK [ALG11]	0.114		-0.199	52.4
MSEVSCKKRDDYLEWPEYFMAVAFLSAQRSKDPNSQVGACIVNSENKIVGIGYNGMPNGCSDDVLPWRRTAENKLDTKYPYVCHAELNAIMNKNSTDVKGCSMYVALFPCNECAKLIIQAGIKEVIFMSDKYHDSDEATAARLLFNMAGVTFRKFIPKCSKIVIDFDSINSRPSQKLQ [DCTD]	0.419	59.8	0.0667	58.5
RINT1	-0.0714	51.4	-0.105	49.2
LLPH	-1.23	58.7	1.03	55.8
MVGPAPRRRLRPLAALALVLALAPGLPTARAGQTPRPAERGPPVRLFTEEELARYGGEEEDQPIYLAVKGVVFDVTSGKEFYGRGAPYNALTGKDSTRGVAKMSLDPADLTHDTTGLTAKELEALDEVFTKVYKAKYPIVGYTARRILNEDGSPNLDFKPEDQPHFDIKDEF [NENF]	0.423	55.3	-0.0192	52.4
MSEAMDQPAGGPGNPRPGEGDDGSMEPGTCQELLHRLRELEAENSALAQANENQRETYERCLDEVANHVVQALLNQKDLREECIKLKKRVFDLERQNQMLSALFQQKLQLTTGSLPQIPLTPLQPPSEPPASPSLSSTEGPAAPLPLGHCAGQREVCWEQQLRPGGPGPPAAPPPALDALSPFLRKKAQILEVLRALEETDPLLLCSPATPWRPPGQGPGSPEPINGELCGPPQPEPSPWAPCLLLGPGNLGGLLHWERLLGGLGGEEDTGRPWGPSRGPPQAQGTSSGPNCAPGSSSSSSSDEAGDPNEAPSPDTLLGALARRQLNLGQLLEDTESYLQAFLAGAAGPLNGDHPGPGQSSSPDQAPPQLSKSKGLPKSAWGGGTPEAHRPGFGATSEGQGPLPFLSMFMGAGDAPLGSRPGHPHSSSQVKSKLQIGPPSPGEAQGPLLPSPARGLKFLKLPPTSEKSPSPGGPQLSPQLPRNSRIPCRNSGSDGSPSPLLARRGLGGGELSPEGAQGLPTSPSPCYTTPDSTQLRPPQSALSTTLSPGPVVSPCYENILDLSRSTFRGPSPEPPPSPLQVPTYPQLTLEVPQAPEVLRSPGVPPSPCLPESYPYGSPQEKSLDKAGSESPHPGRRTPGNSSKKPSQGSGRRPGDPGSTPLRDRLAALGKLKTGPEGALGSEKNGVPARPGTEKTRGPGKSGESAGDMVPSIHRPLEQLEAKGGIRGAVALGTNSLKQQEPGLMGDPGARVYSSHSMGARVDLEPVSPRSCLTKVELAKSRLAGALCPQVPRTPAKVPTSAPSLGKPNKSPHSSPTKLPSKSPTKVVPRPGAPLVTKESPKPDKGKGPPWADCGSTTAQSTPLVPGPTDPSQGPEGLAPHSAIEEKVMKGIEENVLRLQGQERAPGAEVKHRNTSSIASWFGLKKSKLPALNRRTEATKNKEGAGGGSPLRREVKMEARKLEAESLNISKLMAKAEDLRRALEEEKAYLSSRARPRPGGPAPGPNTGLGQVQGQLAGMYQGADTFMQQLLNRVDGKELPSKSWREPKPEYGDFQPVSSDPKSPWPACGPRNGLVGPLQGCGKPPGKPSSEPGRREEMPSEDSLAEPVPTSHFTACGSLTRTLDSGIGTFPPPDHGSSGTPSKNLPKTKPPRLDPPPGVPPARPPPLTKVPRRAHTLEREVPGIEELLVSGRHPSMPAFPALLPAAPGHRGHETCPDDPCEDPGPTPPVQLAKNWTFPNTRAAGSSSDPLMCPPRQLEGLPRTPMALPVDRKRSQEPSRPSPTPQGPPFGGSRTPSTSDMAEEGRVASGGPPGLETSESLSDSLYDSLSSCGSQG [NCKAP5L]	0.0838		-0.128	50.4
PIEZO2	-0.112	55.7	-0.0931	54.8
MASREEVLALQAEVAQREEELNSLKQKLASALLAEQEPQPERLVPVSPLPPKAALSRDEILRYSRQLVLPELGVHGQLRLGTACVLIVGCGGLGCPLAQYLAAAGVGRLGLVDYDVVEMSNLARQVLHGEALAGQAKAFSAAASLRRLNSAVECVPYTQALTPATALDLVRRYDVVADCSDNVPTRYLVNDACVLAGRPLVSASALRFEGQITVYHYDGGPCYRCIFPQPPPAETVTNCADGGVLGVVTGVLGCLQALEVLKIAAGLGPSYSGSLLLFDALRGHFRSIRLRSRRLDCAACGERPTVTDLLDYEAFCGSSATDKCRSLQLLSPEERVSVTDYKRLLDSGAFHLLLDVRPQVEVDICRLPHALHIPLKHLERRDAESLKLLKEAIWEEKQGTQEGAAVPIYVICKLGNDSQKAVKILQSLSAAQELDPLTVRDVVGGLMAWAAKIDGTFPQY [MOCS3]	0.156	51.3	-0.0562	49.5
PLSCR3	0.116		-0.119	56.6
MEAAVGVPDGGDQGGAGPREDATPMDAYLRKLGLYRKLVAKDGSCLFRAVAEQVLHSQSRHVEVRMACIHYLRENREKFEAFIEGSFEEYLKRLENPQEWVGQVEISALSLMYRKDFIIYREPNVSPSQVTENNFPEKVLLCFSNGNHYDIVYPIKYKESSAMCQSLLYELLYEKVFKTDVSKIVMELDTLEVADEDNSEISDSEDDSCKSKTAAAAADVNGFKPLSGNEQLKNNGNSTSLPLSRKVLKSLNPAVYRNVEYEIWLKSKQAQQKRDYSIAAGLQYEVGDKCQVRLDHNGKFLNADVQGIHSENGPVLVEELGKKHTSKNLKAPPPESWNTVSGKKMKKPSTSGQNFHSDVDYRGPKNPSKPIKAPSALPPRLQHPSGVRQHAFSSHSSGSQSQKFSSEHKNLSRTPSQIIRKPDRERVEDFDHTSRESNYFGLSPEERREKQAIEESRLLYEIQNRDEQAFPALSSSSVNQSASQSSNPCVQRKSSHVGDRKGSRRRMDTEERKDKDSIHGHSQLDKRPEPSTLENITDDKYATVSSPSKSKKLECPSPAEQKPAEHVSLSNPAPLLVSPEVHLTPAVPSLPATVPAWPSEPTTFGPTGVPAPIPVLSVTQTLTTGPDSAVSQAHLTPSPVPVSIQAVNQPLMPLPQTLSLYQDPLYPGFPCNEKGDRAIVPPYSLCQTGEDLPKDKNILRFFFNLGVKAYSCPMWAPHSYLYPLHQAYLAACRMYPKVPVPVYPHNPWFQEAPAAQNESDCTCTDAHFPMQTEASVNGQMPQPEIGPPTFSSPLVIPPSQVSESHGQLSYQADLESETPGQLLHADYEESLSGKNMFPQPSFGPNPFLGPVPIAPPFFPHVWYGYPFQGFIENPVMRQNIVLPSDEKGELDLSLENLDLSKDCGSVSTVDEFPEARGEHVHSLPEASVSSKPDEGRTEQSSQTRKADTALASIPPVAEGKAHPPTQILNRERETVPVELEPKRTIQSLKEKTEKVKDPKTAADVVSPGANSVDSRVQRPKEESSEDENEVSNILRSGRSKQFYNQTYGSRKYKSDWGYSGRGGYQHVRSEESWKGQPSRSRDEGYQYHRNVRGRPFRGDRRRSGMGDGHRGQHT [OTUD4]	-0.0234		0.0663	51.1
MASSEVARHLLFQSHMATKTTCMSSQGSDDEQIKRENIRSLTMSGHVGFESLPDQLVNRSIQQGFCFNILCVGETGIGKSTLIDTLFNTNFEDYESSHFCPNVKLKAQTYELQESNVQLKLTIVNTVGFGDQINKEESYQPIVDYIDAQFEAYLQEELKIKRSLFTYHDSRIHVCLYFISPTGHSLKTLDLLTMKNLDSKVNIIPVIAKADTVSKTELQKFKIKLMSELVSNGVQIYQFPTDDDTIAKVNAAMNGQLPFAVVGSMDEVKVGNKMVKARQYPWGVVQVENENHCDFVKLREMLICTNMEDLREQTHTRHYELYRRCKLEEMGFTDVGPENKPVSVQETYEAKRHEFHGERQRKEEEMKQMFVQRVKEKEAILKEAERELQAKFEHLKRLHQEERMKLEEKRRLLEEEIIAFSKKKATSEIFHSQSFLATGSNLRKDKDRKNSNFL [SEPT10]	-0.132		-0.0981	
PPP3R1	0.385		-0.104	
MLLGLAAMELKVWVDGIQRVVCGVSEQTTCQEVVIALAQAIGQTGRFVLVQRLREKERQLLPQECPVGAQATCGQFASDVQFVLRRTGPSLAGRPSSDSCPPPERCLIRASLPVKPRAALGCEPRKTLTPEPAPSLSRPGPAAPVTPTPGCCTDLRGLELRVQRNAEELGHEAFWEQELRREQAREREGQARLQALSAATAEHAARLQALDAQARALEAELQLAAEAPGPPSPMASATERLHQDLAVQERQSAEVQGSLALVSRALEAAERALQAQAQELEELNRELRQCNLQQFIQQTGAALPPPPRPDRGPPGTQGPLPPAREESLLGAPSESHAGAQPRPRGGPHDAELLEVAAAPAPEWCPLAAQPQAL [RASSF7]	0.299		0.0497	
